Measurements as given in the Human Domainome abundance scans (Beltran et al. 2025).
± gives the uncertainty stated by the source.

B1: Advillin, residues 785 to 819; numbered along this chain, O75366 (parent)
chain: LSEQDFVSVFGITRGQFAALPGWKQLQMKKEKGLF

Variants of: B1
Assay: abundance fitness (aPCA) (normalised: wild type 0, dead -1); higher = more abundant; growth selection in yeast, the domain comes from the species named
Settings: Homo sapiens

Row | Variant | abundance fitness
1 | LSEQDFVSVFGYTRGQFAALPGWKQLQMKKEKGLF [I12Y] | -0.306 ± 0.14
2 | LSEQDFVSVFGRTRGQFAALPGWKQLQMKKEKGLF [I12R] | -0.629 ± 0.058
3 | LSEQDFVSVFGPTRGQFAALPGWKQLQMKKEKGLF [I12P] | -0.713 ± 0.092
4 | LSEQDFVSVFGSTRGQFAALPGWKQLQMKKEKGLF [I12S] | -0.629 ± 0.064
5 | LSEQDFVSVFGTTRGQFAALPGWKQLQMKKEKGLF [I12T] | -0.531 ± 0.084
6 | LSEQDFVSVFGQTRGQFAALPGWKQLQMKKEKGLF [I12Q] | -0.897 ± 0.15
7 | LSEQDFVSVFGMTRGQFAALPGWKQLQMKKEKGLF [I12M] | 0.128 ± 0.079
8 | LSEQDFVSVFGVTRGQFAALPGWKQLQMKKEKGLF [I12V] | -0.089 ± 0.069
9 | LSEQDFVSVFGWTRGQFAALPGWKQLQMKKEKGLF [I12W] | -0.999 ± 0.11
10 | LSEQDFVSVFGNTRGQFAALPGWKQLQMKKEKGLF [I12N] | -0.471 ± 0.1
11 | LSEQDFVSVFGITRGTFAALPGWKQLQMKKEKGLF [Q16T] | -0.192 ± 0.077
12 | LSEQDFVSVFGITRGEFAALPGWKQLQMKKEKGLF [Q16E] | -0.053 ± 0.077
13 | LSEQDFVSVFGITRGDFAALPGWKQLQMKKEKGLF [Q16D] | -0.347 ± 0.2
14 | LSEQDFVSVFGITRGHFAALPGWKQLQMKKEKGLF [Q16H] | -0.183 ± 0.15
15 | LSEQDFVSVFGITRGGFAALPGWKQLQMKKEKGLF [Q16G] | -0.378 ± 0.069
16 | LSEQDFVSVFGITRGSFAALPGWKQLQMKKEKGLF [Q16S] | -0.211 ± 0.067
17 | LSEQDFVSVFGITRGRFAALPGWKQLQMKKEKGLF [Q16R] | -0.281 ± 0.056
18 | LSEQDFVSVFGITRGFFAALPGWKQLQMKKEKGLF [Q16F] | -0.302 ± 0.13
19 | LSEQDFVSVFGITRGMFAALPGWKQLQMKKEKGLF [Q16M] | -0.279 ± 0.12
20 | LSEQDFVSVFGITRGCFAALPGWKQLQMKKEKGLF [Q16C] | -0.43 ± 0.097
21 | LSEQDFVSVFGITRGIFAALPGWKQLQMKKEKGLF [Q16I] | -0.396 ± 0.41
22 | LSEQDFVSVFGITRGYFAALPGWKQLQMKKEKGLF [Q16Y] | -0.252 ± 0.17
23 | LSEQDFVSVFGITRGVFAALPGWKQLQMKKEKGLF [Q16V] | -0.422 ± 0.12
24 | LSEQDFVSVFGITRGWFAALPGWKQLQMKKEKGLF [Q16W] | -0.626 ± 0.1

Row | Variant | abundance fitness
25 | LSEQDFVSVFGITRGPFAALPGWKQLQMKKEKGLF [Q16P] | -0.355 ± 0.29
26 | LSEQDFVSVFGITRGLFAALPGWKQLQMKKEKGLF [Q16L] | -0.382 ± 0.073
27 | LSEQDFVSVFGITRGQFAAKPGWKQLQMKKEKGLF [L20K] | -0.639 ± 0.099
28 | LSEQDFVSVFGITRGQFAAFPGWKQLQMKKEKGLF [L20F] | -0.832 ± 0.18
29 | LSEQDFVSVFGITRGQFAARPGWKQLQMKKEKGLF [L20R] | -0.563 ± 0.059
30 | LSEQDFVSVFGITRGQFAADPGWKQLQMKKEKGLF [L20D] | -0.113 ± 0.16
31 | LSEQDFVSVFGITRGQFAACPGWKQLQMKKEKGLF [L20C] | -0.847 ± 0.11
32 | LSEQDFVSVFGITRGQFAASPGWKQLQMKKEKGLF [L20S] | -0.328 ± 0.062
33 | LSEQDFVSVFGITRGQFAAEPGWKQLQMKKEKGLF [L20E] | -0.404 ± 0.09
34 | LSEQDFVSVFGITRGQFAAQPGWKQLQMKKEKGLF [L20Q] | -0.368 ± 0.1
35 | LSEQDFVSVFGITRGQFAAPPGWKQLQMKKEKGLF [L20P] | -0.759 ± 0.12
36 | LSEQDFVSVFGITRGQFAAHPGWKQLQMKKEKGLF [L20H] | -0.487 ± 0.1
37 | LSEQDFVSVFGITRGQFAAMPGWKQLQMKKEKGLF [L20M] | -0.211 ± 0.056
38 | LSEQDFVSVFGITRGQFAAAPGWKQLQMKKEKGLF [L20A] | -0.593 ± 0.077
39 | LSEQDFVSVFGITRGQFAAGPGWKQLQMKKEKGLF [L20G] | -0.408 ± 0.076
40 | LSEQDFVSVFGITRGQFAANPGWKQLQMKKEKGLF [L20N] | -0.248 ± 0.21
41 | LSEQDFVSVFGITRGQFAAIPGWKQLQMKKEKGLF [L20I] | -0.902 ± 0.31
42 | LSEQDFVSVFGITRGQFAATPGWKQLQMKKEKGLF [L20T] | -0.424 ± 0.079
43 | LSEQDFVSVFGITDGQFAALPGWKQLQMKKEKGLF [R14D] | -0.431 ± 0.071
44 | LSEQDFVSVFGITHGQFAALPGWKQLQMKKEKGLF [R14H] | -0.262 ± 0.078
45 | LSEQDFVSVFGITTGQFAALPGWKQLQMKKEKGLF [R14T] | -0.205 ± 0.061
46 | LSEQDFVSVFGITNGQFAALPGWKQLQMKKEKGLF [R14N] | -0.611 ± 0.11
47 | LSEQDFVSVFGITKGQFAALPGWKQLQMKKEKGLF [R14K] | 0.145 ± 0.12
48 | LSEQDFVSVFGITQGQFAALPGWKQLQMKKEKGLF [R14Q] | -0.037 ± 0.074

Row | Variant | abundance fitness
49 | LSEQDFVSVFGITFGQFAALPGWKQLQMKKEKGLF [R14F] | -0.117 ± 0.13
50 | LSEQDFVSVFGITWGQFAALPGWKQLQMKKEKGLF [R14W] | -0.349 ± 0.066
51 | LSEQDFVSVFGITPGQFAALPGWKQLQMKKEKGLF [R14P] | -0.116 ± 0.11
52 | LSEQDFVSVFGITVGQFAALPGWKQLQMKKEKGLF [R14V] | -0.264 ± 0.079
53 | LSEQDFVSVFGITMGQFAALPGWKQLQMKKEKGLF [R14M] | -0.024 ± 0.078
54 | LSEQDFVSVFGITSGQFAALPGWKQLQMKKEKGLF [R14S] | -0.169 ± 0.058
55 | LSEQDFVSVFGITIGQFAALPGWKQLQMKKEKGLF [R14I] | -0.252 ± 0.11
56 | LSEQDFVSVFGITGGQFAALPGWKQLQMKKEKGLF [R14G] | -0.317 ± 0.063
57 | LSEQDFVSVFGITLGQFAALPGWKQLQMKKEKGLF [R14L] | -0.322 ± 0.079
58 | LSEQDFVSVFGITEGQFAALPGWKQLQMKKEKGLF [R14E] | -0.024 ± 0.082
59 | LSEQDFVSVFGITCGQFAALPGWKQLQMKKEKGLF [R14C] | -0.095 ± 0.11
60 | LSEQDFVSVFGITAGQFAALPGWKQLQMKKEKGLF [R14A] | -0.121 ± 0.06
61 | LSEQDFVSVFGITRGQFAELPGWKQLQMKKEKGLF [A19E] | 0.021 ± 0.063
62 | LSEQDFVSVFGITRGQFALLPGWKQLQMKKEKGLF [A19L] | -0.137 ± 0.082
63 | LSEQDFVSVFGITRGQFAYLPGWKQLQMKKEKGLF [A19Y] | -0.409 ± 0.12
64 | LSEQDFVSVFGITRGQFAHLPGWKQLQMKKEKGLF [A19H] | -0.119 ± 0.11
65 | LSEQDFVSVFGITRGQFAWLPGWKQLQMKKEKGLF [A19W] | -0.654 ± 0.096
66 | LSEQDFVSVFGITRGQFAILPGWKQLQMKKEKGLF [A19I] | -0.5 ± 0.35
67 | LSEQDFVSVFGITRGQFANLPGWKQLQMKKEKGLF [A19N] | -0.052 ± 0.18
68 | LSEQDFVSVFGITRGQFATLPGWKQLQMKKEKGLF [A19T] | -0.254 ± 0.069
69 | LSEQDFVSVFGITRGQFAGLPGWKQLQMKKEKGLF [A19G] | -0.114 ± 0.055
70 | LSEQDFVSVFGITRGQFAPLPGWKQLQMKKEKGLF [A19P] | -0.749 ± 0.11
